Measured values: PMC9860685, “α-Crystallin Domains of Five Human Small Heat Shock Proteins (sHsps) Differ in Dimer Stabilities and Ability to Incorporate Themselves into Oligomers of Full-Length sHsps” (International Journal of Molecular Sciences, 2023)
One block for each binder: values may come before it.

Experiments:
[1] = biological target: T1, 3D mutant of HspB1 (S15D, S78D, S82D) (human, UniProt P04792 1-205, S15D | S78D | S82D); assay: SEC; full-length sHsp (~19–20 μM per monomer) mixed with ACD (38–110 μM per monomer) in buffer B, 30 min at 42 °C; Superdex 200 Increase column in 50 mM phosphate pH 7.4, 150 mM NaCl, 2 mM DTT; fractions analysed by SDS–PAGE; conditions: both partners purified
T1 construct: human HspB1, full length, with three phosphomimicking point mutations; Forms small oligomers (probably dimers or tetramers, by cited work); also called full-length 3D mutant
T1 sequence (P04792 whole entry S15D/S78D/S82D): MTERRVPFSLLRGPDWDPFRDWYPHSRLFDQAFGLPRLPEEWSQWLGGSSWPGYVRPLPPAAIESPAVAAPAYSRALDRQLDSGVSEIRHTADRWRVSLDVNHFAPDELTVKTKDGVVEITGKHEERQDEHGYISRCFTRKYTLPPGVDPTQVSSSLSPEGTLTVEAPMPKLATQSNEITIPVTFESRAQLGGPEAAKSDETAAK

[2] = biological target: the molecule itself; assay: SEC; Superdex 75 10/300 GL, 50 mM phosphate pH 7.4, 150 mM NaCl, 2 mM DTT; 25 μL samples of 16–150 μg (25–600 μM per monomer); apparent dissociation constant, dimer to monomers, from a hyperbolic fit of elution volume against the concentration loaded
[3] = biological target: the molecule itself; assay: cross-linking; glutaraldehyde 0.008% or 0.024%, ACDs at 3 mg/mL in 25 mM HEPES pH 7.5, 30 min at 30 °C; Tricine–SDS–PAGE
full-length HspB6 = biological target: T2, full-length HspB6 (human, UniProt O14558 1-160); assay: native gel or EMSA; clear native PAGE, 12.5% gel, 80 mM glycine–Tris pH 8.6; sHsp 5–6 μM per monomer mixed with ACD 20–24 μM per monomer, 30 min at 25 °C in buffer B; Western blot with anti-HspB6 for the complexes of HspB6; conditions: both partners purified
T2 construct: Predominantly dimeric by cited work; also called B6FL
T2 sequence (looked up): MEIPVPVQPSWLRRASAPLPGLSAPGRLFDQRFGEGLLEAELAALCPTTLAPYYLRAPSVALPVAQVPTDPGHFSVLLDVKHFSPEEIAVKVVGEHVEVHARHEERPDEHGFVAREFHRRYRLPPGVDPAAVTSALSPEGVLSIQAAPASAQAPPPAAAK

binding result [1]: binds
B1: α-crystallin domain of HspB6 (B6ACD) (domain or fragment, human, UniProt O14558 64-149, looked up)
chain: VAQVPTDPGHFSVLLDVKHFSPEEIAVKVVGEHVEVHARHEERPDEHGFVAREFHRRYRLPPGVDPAAVTSALSPEGVLSIQAAPA
notes: human HspB6, α-crystallin domain, residues 64-149; Cloned by NdeI and XhoI into pET23b; In equilibrium of monomers and dimers; also called HspB6 ACD; source: E. coli, purified (ammonium sulfate fractionation, ion-exchange chromatography, size-exclusion chromatography)
Kd [2]: 162 µM

binding result [1]: binds
binding result (full-length HspB6): binds
B2: α-crystallin domain of HspB5 (B5ACD) (domain or fragment, human, UniProt P02511 64-150, looked up)
chain: GLSEMRLEKDRFSVNLDVKHFSPEELKVKVLGDVIEVHGKHEERQDEHGFISREFHRKYRIPADVDPLTITSSLSSDGVLTVNGPRK
notes: human HspB5 (αB-crystallin), α-crystallin domain, residues 64-150; Cloned by NdeI and XhoI into pET23b; In equilibrium of monomers and dimers; also called HspB5 ACD; source: E. coli, purified (ammonium sulfate fractionation, ion-exchange chromatography, size-exclusion chromatography)
Kd [2]: 127 µM
stoichiometry N [3]: 2
